Source: patent US20150086555A1 (THERACLONE SCIENCES, published 2015)

B1: TCN-547 (5092_F11) (antibody, V domains shown)
VH: QVQLQESGPGLVKPSQTLSLTCTVSGDSISSVDHYWSWIRQHPVKGLEWIGFMYYSASTYYNPSLKSRVTISTDTSKNQFSLRLSSVTAADTAVYYCARGTCAGDCSLHYYYYGLDVWGQGRTVTVSS
VL: DIQMTQSPSSLSASVGDRVTITCRASQSISSYLNWYQHKPGKAPKVLMYAVSILQSGVPSRFSGSGSGADFTLTISSLQPEDFATYYCQQSYSSPLTFGGGTKVEIK
B2: TCN-546 (5089_L08) (antibody, V domains shown)
VH: QVQLQQWGAGLLKPSETLSLTCGVYGGSLSDYYWSWIRQPPGKGLEWIGEINHSGGTNYNPSLKRRVTISVDTSKKQFSLKMNSVTAADTAVYYCARGTDPDTEVYCRAGNCAAFDFWGQGTLVTVSS
VL: EIVLTQSPGTLSLSPGERATLSCRASHFVIGRAVAWYQQKPGQAPRLLIYGASSRATGIPDRFSGSGSGTDFTLTISRLETEDFAVFYCQHYGSSPRYAFGQGTKLEIK
B3: TCN-548 (5092_P01) (antibody, V domains shown)
VH: QVQLQESGPGLVKPSETLSLTCTVSSGPMSDYYWSWIRQPPGKGLEWIGHVSVSHGGRTKSNPSVMSRVTISVETSKNQFSLKLTSVTAADTAVYYCARLNYYDRSGYHSPDGPSNNWFDPWGQGTLVTVSS
VL: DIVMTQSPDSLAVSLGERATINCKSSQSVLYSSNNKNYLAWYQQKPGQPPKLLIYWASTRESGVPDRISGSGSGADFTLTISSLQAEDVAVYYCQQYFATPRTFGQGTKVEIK
B4: TCN-553 (5261_C18) (antibody, V domains shown)
VH: QVQVVQSGTEVKKPGSSVKVSCQTSGGRFMSYAITWVRQAPGQGLEWMGGIVPVFGTANYAQKFQGRVTITTDDSTRTAYMELSSLRSEDTAVYYCGFRYGSGYGFDSWGQGTLVTVSS
VL: EIVLTQSPGTLSLSPGERATLSCRASQSVSSSYLAWYQKKPGQAPRLLIYGASTRATGIPDRFTGSGSGTDFTLSISRLEPEDFAVYYCQHFGTSVFTFGGGTKVEIK
B5: TCN-550 (5096_F06) (antibody, V domains shown)
VH: QVQLQESGPGLVKPSETLSLTCTVSGASINSHYWSWIRQPPGKGLEWIGYVYYSGSTTYNPSLKSRVTLSVDTSKNQFSLNLSSVTAADTAFYYCARHPYDVLTGSGDWFDPWGQGTLVTVSS
VL: SYVLTQAPSVSVAPGQTARITCGGNAIGSKKVHWYQHKAGQAPVLVVYDDTDRPSGIPERFSGSNSWSTATLTINRVEAGDEADYYCQVWDFTIDHVVFGGGTKLTVL
B6: TCN-523 (5248_A17) (antibody, V domains shown)
VH: QVQLVQSGAEVKKPGSSVKVSCKASGGSFSNYAFSWVRQAPGQGLEWMGGTIPLLGTTNYAQKFQGRVTISADQFTSTAYMELGSLRSEDTAVYYCTRRKMTTAFDSWGQGTLVTVSS
VL: QPVLTQPPSASASLGASVTLTCTLSSAYSNYKVDWYQQRPGKGPRFVMRVGTGGIVGSKGDGIPDRFSVLGSGLNRYLTIKNIQEEDESDYHCGADHGSGSNFVSPYVFGGGTKLTVL
B7: TCN-549 (5092_P04) (antibody, V domains shown)
VH: QVQLVQSGAEVKKPGASVKVSCKASGYTFTGYYMHWVRQAPGQGLEWMGWINPNSGDTNYAQKFQGRVTMTRDTSITTAYMELSSLRSDDTAVYYCARDSPYSSSWSFFDYWGQGPLVTVSS
VL: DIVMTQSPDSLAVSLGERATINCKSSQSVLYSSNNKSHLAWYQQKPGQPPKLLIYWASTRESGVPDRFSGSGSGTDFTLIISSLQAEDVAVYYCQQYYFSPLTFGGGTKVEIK
B8: TCN-552 (5249_I23) (antibody, V domains shown)
VH: QVQVVQSGAEVKKPGSSVRVSCQASGGTFMNYAIIWVRRAPGQGLEWMGGIIPVFPTPNYAQMFQGRVTISTDESRSTSFLELTNLRYEDTAVYYCARRIYHGGNSGFDFWGQGTLVTVSS
VL: EIVLTQSPATLSLSPGERATLSCRASQSVGNYLAWYQQKPGQAPRLLIYDSSNRAPGIPARFSGSGSGTDFTLTISSLAPEDFAVYYCQQRSKWPPMYSFGHGTKLEIK
B9: TCN-556 (5089_K12) (antibody, V domains shown)
VH: QVQLVQSGAEVKKPGASVKVSCKASGYTFIGYDMHWVRQAPGQGLEWMGWINAKRGGTNYAQKFQGRVTMTRDTSISTAYMELNSLRSDDTAVYYCARGVGSRTTIFGVLNPEFDYWGQGTLVTVSS
VL: QSALTQPPSASGSPGQSVTISCTGSSSDVGGYDYVSWYQQHPGKAPKLLIYEVTKRPSGVPDRFSGSKSGNTASLTVSGLQAEDEADYYCSSYAGNYNHVFGPGTKVTVL

Target: hemagglutinin (HA) of influenza A/Japan/305/57 (H2N2) on whole virions (Influenza A virus A/Japan/305/1957(H2N2), UniProt P03451 16-562)
Assay: ELISA; BCC supernatant on coated inactivated whole virions

Binder | ELISA virus binding (OD450)
B1 | 0.07
B2 | 0.06
B3 | 0.09
B4 | 2.54
B5 | 0.06
B6 | 1.62
B7 | 0.08
B8 | 0.71
B9 | 2.41
